± gives the uncertainty stated by the source.
Experiment: self-splicing fitness, log relative to wild type (ln ratio); higher = more splicing; Tetrahymena group I intron in knt gene, E. coli kanamycin selection, DiMSum; sequences stand for … in CUCUCU…GGAGGGAAAAGUUAUCAGGCAUGCACCUGGUAGCUAGUCUUUAAACCAAUAGAUUGCAUCGGUUUAAAAGGCAAGACCGUCAAAUUGCGGGAAAGGGGUCAACAGCCGUUCAGUACCAAGUCUCAGGGGAAACUUUGAGAUGGCCUUGCAAAGGGUAUGGUAAUAAGCUGACGGACAUGGUCCUAACCACGCAGCCAAGUCCUAAGUCAACAGAUCUUCUGUUGAUAUGGAUGCAGUUCACAGACUAAAUGUCGGUCGGGGAAGAUGUAUUCUUCUCAUAAGAUAUAGUCGGACCUCUCCUUAAUGGGAGCUAGCGGAUGAAGUGAUGCAACACUGGAGCCGCUGGGAACUAAUUUGUAUGCGAAAGUAUAUUGAUUAGUUUUGGAGUACUCGUGGUCG
Summary of the method: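 Fitness was computed with DiMSum as the error-weighted combination of replicate fold changes, kanamycin versus none, each normalised to wild type. The library randomised all eight intron nucleotides of the P1ex region, with the intron placed in the knt kanamycin-resistance gene on pET-22b(+) in E. coli BL21(DE3). Six replicate transformations were grown overnight at 37°C or 30°C on LB agar with or without 25 μg/mL kanamycin, plus 100 μg/mL carbenicillin, 50 μM IPTG and 0.2% rhamnose. Pooled colonies were amplicon-sequenced on an Illumina HiSeq 2500.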

In the case of CGAUAGCAAUAUUACGUCCA, the “self-splicing fitness (ln)” value (30 °C) is reported as -1.86 ± 0.15 and the “self-splicing fitness (ln)” value (37 °C) is reported as -0.237 ± 0.16.
With UUGGAGCAAUAUUACGGCAA the “self-splicing fitness (ln)” value (30 °C) was -0.805 ± 0.23 and the “self-splicing fitness (ln)” value (37 °C) was -0.671 ± 0.32.
For GGGUAGCAAUAUUACGCGAC, the “self-splicing fitness (ln)” value (30 °C) was -2.34 ± 0.2 and the “self-splicing fitness (ln)” value (37 °C) was -1.62 ± 0.23.
In the case of GAUUAGCAAUAUUACGUAGA, the “self-splicing fitness (ln)” value (30 °C) is reported as -1.92 ± 0.15 and the “self-splicing fitness (ln)” value (37 °C) is reported as -0.933 ± 0.14.
With AGGAAGCAAUAUUACGGUAU the “self-splicing fitness (ln)” value (30 °C) was -2.52 ± 0.28 and the “self-splicing fitness (ln)” value (37 °C) was -0.707 ± 0.24.
In the case of CGUUAGCAAUAUUACGUAUC, the “self-splicing fitness (ln)” value (37 °C) is reported as -2.15 ± 0.28.
In the case of ACUGAGCAAUAUUACGUCUA, the “self-splicing fitness (ln)” value (37 °C) is reported as -2.44 ± 0.25.
In the case of GAUGAGCAAUAUUACGUCGC, the “self-splicing fitness (ln)” value (30 °C) is reported as -4.14 ± 0.29 and the “self-splicing fitness (ln)” value (37 °C) is reported as -2.7 ± 0.26.
With AGCAAGCAAUAUUACGUCCU the “self-splicing fitness (ln)” value (30 °C) was 0.639 ± 0.099 and the “self-splicing fitness (ln)” value (37 °C) was 0.541 ± 0.11.
In the case of UUGCAGCAAUAUUACGGAUU, the “self-splicing fitness (ln)” value (30 °C) is reported as -2.96 ± 0.23 and the “self-splicing fitness (ln)” value (37 °C) is reported as -2.91 ± 0.33.
With AGUGAGCAAUAUUACGGACA the “self-splicing fitness (ln)” value (30 °C) was -1.09 ± 0.2 and the “self-splicing fitness (ln)” value (37 °C) was -1.5 ± 0.27.
In the case of AGAAAGCAAUAUUACGAACG, the “self-splicing fitness (ln)” value (30 °C) is reported as -0.489 ± 0.084 and the “self-splicing fitness (ln)” value (37 °C) is reported as -0.004 ± 0.12.
For CACAAGCAAUAUUACGAAGU, the “self-splicing fitness (ln)” value (30 °C) was -3.68 ± 0.16 and the “self-splicing fitness (ln)” value (37 °C) was -1.43 ± 0.12.
In the case of CUCGAGCAAUAUUACGUCAA, the “self-splicing fitness (ln)” value (30 °C) is reported as -3.49 ± 0.3 and the “self-splicing fitness (ln)” value (37 °C) is reported as -1.81 ± 0.26.
For ACACAGCAAUAUUACGCGUC, the “self-splicing fitness (ln)” value (30 °C) was -3.69 ± 0.11 and the “self-splicing fitness (ln)” value (37 °C) was -3.32 ± 0.15.
In the case of CUGGAGCAAUAUUACGCUGG, the “self-splicing fitness (ln)” value (37 °C) is reported as -2.98 ± 0.35.
For GAAUAGCAAUAUUACGGCAA, the “self-splicing fitness (ln)” value (30 °C) was -0.403 ± 0.14 and the “self-splicing fitness (ln)” value (37 °C) was -0.118 ± 0.14.
With GAACAGCAAUAUUACGACUG the “self-splicing fitness (ln)” value (30 °C) was -1.45 ± 0.085 and the “self-splicing fitness (ln)” value (37 °C) was 0.155 ± 0.1.
With CGUGAGCAAUAUUACGCGAU the “self-splicing fitness (ln)” value (30 °C) was -2.75 ± 0.23 and the “self-splicing fitness (ln)” value (37 °C) was -1.35 ± 0.24.
For ACACAGCAAUAUUACGAGAU, the “self-splicing fitness (ln)” value (30 °C) was -3.79 ± 0.16 and the “self-splicing fitness (ln)” value (37 °C) was -0.784 ± 0.11.
In the case of CAUAAGCAAUAUUACGAGUG, the “self-splicing fitness (ln)” value (30 °C) is reported as -2.76 ± 0.19 and the “self-splicing fitness (ln)” value (37 °C) is reported as -2.86 ± 0.2.
In the case of GCUAAGCAAUAUUACGAUCC, the “self-splicing fitness (ln)” value (30 °C) is reported as -0.136 ± 0.12 and the “self-splicing fitness (ln)” value (37 °C) is reported as -0.278 ± 0.14.
In the case of GUUCAGCAAUAUUACGCCCC, the “self-splicing fitness (ln)” value (30 °C) is reported as -0.521 ± 0.16 and the “self-splicing fitness (ln)” value (37 °C) is reported as -0.42 ± 0.19.
For UUAUAGCAAUAUUACGGACC, the “self-splicing fitness (ln)” value (30 °C) was -3.38 ± 0.47 and the “self-splicing fitness (ln)” value (37 °C) was -1.41 ± 0.21.
In the case of ACCUAGCAAUAUUACGAAAA, the “self-splicing fitness (ln)” value (30 °C) is reported as -2.66 ± 0.18 and the “self-splicing fitness (ln)” value (37 °C) is reported as -1.7 ± 0.13.
With AAUCAGCAAUAUUACGCCGA the “self-splicing fitness (ln)” value (30 °C) was -1.17 ± 0.09 and the “self-splicing fitness (ln)” value (37 °C) was -0.332 ± 0.11.
With CUGGAGCAAUAUUACGCAAU the “self-splicing fitness (ln)” value (30 °C) was -3.93 ± 0.33 and the “self-splicing fitness (ln)” value (37 °C) was -2.08 ± 0.29.
In the case of AGCUAGCAAUAUUACGGUAA, the “self-splicing fitness (ln)” value (30 °C) is reported as -2.34 ± 0.26 and the “self-splicing fitness (ln)” value (37 °C) is reported as -1.53 ± 0.26.
In the case of AGACAGCAAUAUUACGUAUC, the “self-splicing fitness (ln)” value (30 °C) is reported as -3.63 ± 0.16 and the “self-splicing fitness (ln)” value (37 °C) is reported as -1.52 ± 0.15.
In the case of UUGGAGCAAUAUUACGCAGU, the “self-splicing fitness (ln)” value (30 °C) is reported as -1.93 ± 0.34 and the “self-splicing fitness (ln)” value (37 °C) is reported as -2.84 ± 0.48.
For CUUCAGCAAUAUUACGAGCG, the “self-splicing fitness (ln)” value (30 °C) was -0.695 ± 0.058 and the “self-splicing fitness (ln)” value (37 °C) was -0.136 ± 0.085.
For CUUUAGCAAUAUUACGUACC, the “self-splicing fitness (ln)” value (37 °C) was -1.68 ± 0.3.
In the case of AGUGAGCAAUAUUACGGAAU, the “self-splicing fitness (ln)” value (30 °C) is reported as -3.11 ± 0.18 and the “self-splicing fitness (ln)” value (37 °C) is reported as -2.16 ± 0.13.
With GCUUAGCAAUAUUACGACCC the “self-splicing fitness (ln)” value (30 °C) was -0.525 ± 0.22 and the “self-splicing fitness (ln)” value (37 °C) was -0.569 ± 0.38.
For GUACAGCAAUAUUACGCGCU, the “self-splicing fitness (ln)” value (30 °C) was -1.36 ± 0.13 and the “self-splicing fitness (ln)” value (37 °C) was -0.689 ± 0.19.
For UGUCAGCAAUAUUACGCACG, the “self-splicing fitness (ln)” value (30 °C) was -1.06 ± 0.12 and the “self-splicing fitness (ln)” value (37 °C) was -0.829 ± 0.13.
In the case of CUCCAGCAAUAUUACGGUGA, the “self-splicing fitness (ln)” value (30 °C) is reported as -2 ± 0.099 and the “self-splicing fitness (ln)” value (37 °C) is reported as -1.39 ± 0.11.
In the case of CUUAAGCAAUAUUACGCAAC, the “self-splicing fitness (ln)” value (30 °C) is reported as -3.55 ± 0.27 and the “self-splicing fitness (ln)” value (37 °C) is reported as -2.37 ± 0.26.
With GAAUAGCAAUAUUACGUGUA the “self-splicing fitness (ln)” value (30 °C) was -1.82 ± 0.12 and the “self-splicing fitness (ln)” value (37 °C) was -1.49 ± 0.13.
With GAAAAGCAAUAUUACGGACG the “self-splicing fitness (ln)” value (30 °C) was -1.05 ± 0.092 and the “self-splicing fitness (ln)” value (37 °C) was -0.401 ± 0.1.
For UCGAAGCAAUAUUACGACAC, the “self-splicing fitness (ln)” value (30 °C) was -2.44 ± 0.41 and the “self-splicing fitness (ln)” value (37 °C) was -2.26 ± 0.38.
With UUAGAGCAAUAUUACGGAGA the “self-splicing fitness (ln)” value (30 °C) was -0.579 ± 0.13 and the “self-splicing fitness (ln)” value (37 °C) was -0.654 ± 0.23.
For ACGGAGCAAUAUUACGAGAG, the “self-splicing fitness (ln)” value (30 °C) was -2.06 ± 0.34 and the “self-splicing fitness (ln)” value (37 °C) was -2.22 ± 0.45.
In the case of UGAGAGCAAUAUUACGGAUU, the “self-splicing fitness (ln)” value (30 °C) is reported as -3.39 ± 0.29.
In the case of CAUCAGCAAUAUUACGCCAG, the “self-splicing fitness (ln)” value (30 °C) is reported as -0.613 ± 0.068 and the “self-splicing fitness (ln)” value (37 °C) is reported as -0.553 ± 0.1.
For GAAAAGCAAUAUUACGGAGU, the “self-splicing fitness (ln)” value (30 °C) was -3.18 ± 0.15 and the “self-splicing fitness (ln)” value (37 °C) was -2.11 ± 0.15.
In the case of CGGCAGCAAUAUUACGUUGG, the “self-splicing fitness (ln)” value (30 °C) is reported as -2.38 ± 0.11 and the “self-splicing fitness (ln)” value (37 °C) is reported as -1.46 ± 0.12.
With AGCGAGCAAUAUUACGAUAA the “self-splicing fitness (ln)” value (37 °C) was -2.17 ± 0.24.
For UUAGAGCAAUAUUACGGCGA, the “self-splicing fitness (ln)” value (30 °C) was 0.109 ± 0.063 and the “self-splicing fitness (ln)” value (37 °C) was -0.0898 ± 0.074.
With UUGGAGCAAUAUUACGUUGU the “self-splicing fitness (ln)” value (30 °C) was -4.09 ± 0.36 and the “self-splicing fitness (ln)” value (37 °C) was -1.77 ± 0.26.

Reference: the supplement of paper PMC7877785
